B1: Ubiquitin carboxyl-terminal hydrolase 4 (Saccharomyces cerevisiae), P32571 (parent)
chain: MEQNIISTIRDECIRHRSKYLTIAQLTAIAEAKINEFIITGKAKDQDLSSLLDKCIDILSIYKKNSKDIKNIISCKNKGAMISSNSVMIIQLNYVYYKVIHIIVTTNIPHLSEFAKIKLHKSTSDEGNGNNNNNEFQLMNIYNTLLETLLKDENIAKIKSFIKSSIKQTKLNHEQEECNLMRTGSYITSNQLNSLISSSANSASSQMEILLIDIRSRLEFNKSHIDTKNIICLEPISFKMSYSDHDLEKKSLITSPNSEIKMFQSRNLFKFIILYTDANEYNVKQQSVLLDILVNHSFEKPISDDFTKIFILESGFPGWLKSNYGRQVSSSFPSNNNIKDDSVYINGNTSGLSLQHLPKMSPSIRHSMDDSMKEMLVAPTPLNHLQQQQQQQSDNDHVLKRSSSFKKLFSNYTSPNPKNSNSNLYSISSLSISSSPSPLPLHSPDPVKGNSLPINYPETPHLWKNSETDFMTNQREQLNHNSFAHIAPINTKAITSPSRTATPKLQRFPQTISMNLNMNSNGHSSATSTIQPSCLSLSNNDSLDHTDVTPTSSHNYDLDFAVGLENLGNSCYMNCIIQCILGTHELTQIFLDDSYAKHININSKLGSKGILAKYFARLVHMMYKEQVDGSKKISISPIKFKLACGSVNSLFKTASQQDCQEFCQFLLDGLHEDLNQCGSNPPLKELSQEAEARREKLSLRIASSIEWERFLTTDFSVIVDLFQGQYASRLKCKVCSHTSTTYQPFTVLSIPIPKKNSRNNITIEDCFREFTKCENLEVDEQWLCPHCEKRQPSTKQLTITRLPRNLIVHLKRFDNLLNKNNDFVIYPFLLDLTPFWANDFDGVFPPGVNDDELPIRGQIPPFKYELYGVACHFGTLYGGHYTAYVKKGLKKGWLYFDDTKYKPVKNKADAINSNAYVLFYHRVYGV
partner: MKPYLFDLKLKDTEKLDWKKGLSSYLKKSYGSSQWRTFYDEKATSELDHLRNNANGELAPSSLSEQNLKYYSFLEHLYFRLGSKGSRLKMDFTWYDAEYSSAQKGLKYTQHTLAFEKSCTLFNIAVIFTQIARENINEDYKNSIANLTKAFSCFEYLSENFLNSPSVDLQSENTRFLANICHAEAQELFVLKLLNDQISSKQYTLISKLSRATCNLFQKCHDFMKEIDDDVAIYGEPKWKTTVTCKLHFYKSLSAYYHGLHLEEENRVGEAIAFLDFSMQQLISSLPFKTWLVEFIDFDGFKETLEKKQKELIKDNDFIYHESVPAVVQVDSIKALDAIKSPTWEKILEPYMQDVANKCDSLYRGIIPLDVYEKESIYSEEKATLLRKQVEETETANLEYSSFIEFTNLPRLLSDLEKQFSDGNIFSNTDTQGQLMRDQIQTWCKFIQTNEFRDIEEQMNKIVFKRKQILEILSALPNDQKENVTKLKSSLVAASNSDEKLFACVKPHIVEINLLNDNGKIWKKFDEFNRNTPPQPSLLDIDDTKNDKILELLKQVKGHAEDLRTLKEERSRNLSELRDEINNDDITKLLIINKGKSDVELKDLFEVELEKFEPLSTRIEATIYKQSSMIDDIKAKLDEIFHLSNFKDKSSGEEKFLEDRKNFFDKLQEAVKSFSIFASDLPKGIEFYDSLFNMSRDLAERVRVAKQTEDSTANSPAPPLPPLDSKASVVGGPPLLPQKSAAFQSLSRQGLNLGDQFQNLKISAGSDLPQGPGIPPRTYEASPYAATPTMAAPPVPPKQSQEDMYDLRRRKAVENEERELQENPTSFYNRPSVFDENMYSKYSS
B2: Vacuolar-sorting protein BRO1 (Saccharomyces cerevisiae), P48582 (parent)
chain: B1 partner
partner: B1 chain

Variants of B1 are the subject of one experiment. Conditions: with bro1_yeast BRO1, P48582.
Turning to Y826A, the “effect of a mutation on the interaction” value is “disrupting interaction”.

In the next experiment the parent is B1. Conditions: with bro1_yeast BRO1, P48582. This is another data set of the same source.
On to L829A, for which the “effect of a mutation on the interaction” value is recorded as “disrupting interaction”.

The variants in another experiment derive from B1. Conditions: with bro1_yeast BRO1, P48582. This is another data set of the same source.
On to I825A, for which the “effect of a mutation on the interaction” value was “decreasing interaction”.

The variants in a further experiment derive from B1. Conditions: with bro1_yeast BRO1, P48582. This is another data set of the same source.
P827A: the “effect of a mutation on the interaction” value was “disrupting interaction”.

Variants of B1 are the subject of another experiment. The settings on record: with bro1_yeast BRO1, P48582. This is another data set of the same source.
On to V824A, for which the “effect of a mutation on the interaction” value is on record as “disrupting interaction”.

Another experiment covers variants of B1. The settings on record: with bro1_yeast BRO1, P48582. The source holds these as a separate data set.
On to L830A, for which the “effect of a mutation on the interaction” value is given as “disrupting interaction”.

A further experiment covers variants of B2. The settings on record: with ubp4_yeast DOA4, P32571.
Consider P831A, for which the “effect of a mutation on the interaction” value is “disrupting interaction”.

A further experiment covers variants of B2. Conditions: with ubp4_yeast DOA4, P32571. This is another data set of the same source.
On to F834A, for which the “effect of a mutation on the interaction” value is on record as “disrupting interaction”.

Another experiment covers variants of B2. Conditions: with ubp4_yeast DOA4, P32571. This is another data set of the same source.
Turning to S832A, the “effect of a mutation on the interaction” value is “disrupting interaction”.

In the next experiment the parent is B2. Conditions: with ubp4_yeast DOA4, P32571. The source holds these as a separate data set.
Turning to V833A, the “effect of a mutation on the interaction” value was “disrupting interaction”.

Values taken from IntAct's records for PubMed 17446860.
